This is an account of results in article PMC11300593.

Holding throughout (assay): dynamic light scattering; DLS at 20 mg/ml, 25 °C, with and without ammonium sulfate; dimer to monomers
The target of test [1] is 12-oxophytodienoate reductase 3 from tomato (SlOPR3), wild type (tomato) (UniProt Q9FEW9).
For test [2], the target named is SlOPR3 variant R283E (tomato) (UniProt Q9FEW9).
The target of test [3] is SlOPR3 variant Y364P (tomato) (UniProt Q9FEW9).

By stoichiometry N is commonly meant the number of molecules, sites or subunits per partner or assembly. Substance “12-oxophytodienoate reductase 3 from tomato (SlOPR3), wild type (from UniProt Q9FEW9 1-396) (enzyme)” yielded a stoichiometry N in test [1] of 2.

In test [2], “SlOPR3 variant R283E (from UniProt Q9FEW9 1-396) (enzyme)” registered a stoichiometry N of 2.

As for “SlOPR3 variant Y364P (from UniProt Q9FEW9 1-396) (enzyme)”, the stoichiometry N in test [3] came to 2.
